Drawing on PMC8354326, this text covers ratio to parent for ten substances.

In one assay the target is 2G12. Kind of assay: ELISA. The note with it: parent: 1.0. (An ELISA detects its analyte on a solid surface through an enzyme-linked reagent.)
The target of another assay is PGT145. Kind of assay: ELISA. The note with it: parent: 1.0.

In the case of AMC008 SOSIP.v4.2 Env trimer D620N, the ratio to parent with 2G12 is 0.9; with PGT145 it was 1.5.
In the same order, the values of AMC008 SOSIP.v4.2 Env trimer E662A are 0.9 and 1.1.
As to AMC008 SOSIP.v4.2 Env trimer K232T, the ratio to parent is 0.9 with 2G12 and 1 in the assay with PGT145.
Turning to “AMC008 SOSIP.v4.2 Env trimer K232T; K236T”, the ratio to parent with 2G12 and with PGT145 was 0.9 throughout.
AMC008 SOSIP.v4.2 Env trimer K236T: the ratio to parent in the assay with 2G12 amounted to 0.9; in the assay with PGT145, 1.
For AMC008 SOSIP.v4.2 Env trimer N88Q the same measures were 0.8 and 0.8.
As to AMC008 SOSIP.v4.2 Env trimer N611Q, the ratio to parent in the assay with 2G12 and with PGT145 was 0.8 each time.
In the case of AMC008 SOSIP.v4.2 Env trimer N616Q, the ratio to parent with 2G12 and with PGT145 was 0.9 each time.
In the case of AMC008 SOSIP.v4.2 Env trimer N624D, the ratio to parent in the assay with 2G12 worked out at 0.8; with PGT145, 0.9.
In the same order, the values of AMC008 SOSIP.v4.2 Env trimer N637Q are 0.9 and 0.8.
